This is an account of results in patent US20230227838A1, “ENHANCED CELL SURVIVAL AGAINST BIOTIC AND ABIOTIC STRESSES THROUGH SALICYLICK ACID-INDUCED NPR1 CONDENSATES” (priority 2020, published 2023).

For assay [1], the target named is sim3-GFP (Arabidopsis thaliana) (UniProt P93002). In words: sim3-GFP IP, LC-MS/MS.
For assay [2], the system named is cytoplasmic condensates (SINCs). As to the kind of experiment: Confocal imaging of localization and condensate (body) formation of GFP-fused NPR proteins and variants. The class given is cell-based, Nicotiana benthamiana. As for the experimental part:
Plant transformation: For plant transformations, the Agrobacterium tumefaciens strain GV3101 was transformed with plant binary vectors carrying the indicated transgenes. For stable expression in Arabidopsis, a floral dipping method was used. For transient expression in N benthamiana, the Agrobacterium carrying the indicated construct was cultured overnight at 28° C. in Luria-Bertani (LB) broth medium supplemented with appropriate antibiotics: spectinomycin (100 μg/ml), kanamycin (50 μg/ml), gentamycin (50 μg/ml), and rifampicin (25 μg/ml). The obtained culture was re-inoculated at 1:10 into fresh growth media with antibiotics and grown for another 4 hr. Cells were then spun down at 1,600 g for 10 min, and inoculum was prepared by resuspending cells to OD600 nm=1 in double distilled water (DDW) containing 200 μM acetosyringone (Sigma). Unless otherwise stated, for co-IP, co-localization, and BiFC assays in N. benthamiana, the proteins were co-expressed at 1:1 mixture of the relevant Agrobacteria inoculums. In all BiFC assays, the pair of YN/YC fusions was co-expressed together with free mCherry to mark the cytoplasm and nucleus, mCherry-NLS to mark the nucleus only, or mCherry-fused test proteins for co-localization analysis. The inoculum was pressure infiltrated into N. benthamiana leaves at the abaxial side using 1 ml syringe without the needle. Due to low overall levels of NPR1-GFP in transgenic plants, a transient expression assay in Arabidopsis seedlings was used to monitor NPR1-GFP subcellular localization after SA treatment (FIG. 2B). To limit the imaging time in this transient assay (2 hours), a higher baseline SA concentration had to be used. Seeds of WT (Col-0) Arabidopsis were germinated on solid half-strength Murashige and Skoog (1/2 MS) medium and grown for 4 days. Agrobacterium carrying the indicated constructs was grown overnight in LB medium supplemented with appropriate antibiotics. The obtained culture was re-inoculated at 1:10 into virulence induction medium [50.78 mM MES, 0.5% Glucose, 1.734 mM NaH2PO4, 5% of 20X-AB mix (373.9 mM NH4C1, 24.34 mM MgSO4, 40.23 mM KCl, 1.36 mM CaCl2 and 0.18 mM FeSO4·7H2O), 200 μM acetosyringone] supplemented with 25 μg/ml rifampicin and grown for another 24 hr at 28° C. to OD600=0.8 (inoculum). Seedlings were vacuum-infiltrated with the inoculum, and at 48 hpi (hours post inoculation), treatments were performed by submerging the transformed seedlings in water or SA solution at indicated concentrations for 2 hr. Entire cotyledons were sampled for microscopy.
Confocal laser scanning microscopy. Unless otherwise indicated, all imaging data and micrographs for single protein imaging, co-localizations, BiFC and time-lapse were obtained from the transient expression in N. benthamiana using the relevant Agrobacteria strains. All imaging was done with confocal laser scanning fluorescence microscopy using Zeiss 880 airyscan inverted confocal microscope with a 40×/1.2 water correction objective. GFP (eGFP) was excited with a 488 nm argon laser and emission was collected with a 505-530 nm band pass filter. YFP was excited with an argon laser using a 514 nm beam splitter, and emission was detected with a 520-555 nm band pass filter. mCherry was excited with a 561 nm diode laser, and emission was detected with a 575-615 nm band pass filter. When eGFP/YFP were imaged together with mCherry, a spectral GASP detector was used to collect emission from eGFP/YFP. Propidium iodide (PI) was excited with 488 nm argon laser and emission was detected with a 590-620 nm band pass filter. Time-lapse imaging was carried out on live leaf tissue samples from N. benthamiana plants transiently expressing the protein of interest. Image acquisition was done in 5 min intervals for the duration of 2 hr by scanning 30 consecutive focal planes along the Z-axis covering the entire thickness of an epidermal cell. Z-projection was done to each time frame stack before composing a final time-lapse file. […]

Sequence of sim3-GFP (Arabidopsis thaliana) (P93002 other isoform, or with tags, fused parts or gaps): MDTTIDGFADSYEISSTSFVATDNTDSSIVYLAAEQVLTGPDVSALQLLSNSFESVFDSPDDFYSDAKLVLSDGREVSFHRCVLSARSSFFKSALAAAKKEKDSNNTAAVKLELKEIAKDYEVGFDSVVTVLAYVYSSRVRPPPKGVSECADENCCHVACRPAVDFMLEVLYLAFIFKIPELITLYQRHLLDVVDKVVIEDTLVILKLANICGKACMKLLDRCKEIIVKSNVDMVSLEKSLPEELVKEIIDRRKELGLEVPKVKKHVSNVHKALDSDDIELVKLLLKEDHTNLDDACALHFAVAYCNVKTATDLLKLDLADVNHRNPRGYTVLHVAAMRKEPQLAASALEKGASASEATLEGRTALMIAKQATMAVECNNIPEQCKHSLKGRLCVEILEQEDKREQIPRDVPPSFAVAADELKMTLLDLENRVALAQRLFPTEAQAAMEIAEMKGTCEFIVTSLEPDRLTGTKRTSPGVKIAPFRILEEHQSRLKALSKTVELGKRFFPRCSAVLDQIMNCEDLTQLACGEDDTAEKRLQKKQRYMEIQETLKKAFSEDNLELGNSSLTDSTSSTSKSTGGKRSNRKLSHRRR

B1: NIMIN1 (protein, UniProt Q9FNZ5 1-142, looked up)
Protein NIM1-INTERACTING 1: MYPKQFSLYNYSLETMSKDENVESKETIRVDKRVREDEEEEEEKKIDTFFKLIKHYQEARKRRREELAENSGVVRRKSNGGERSGIVVPAFQPEDFSQCRTGLKPPLMFVSDHKEENTKVEQEEDQTEERNEDKALDLNLAL
Turning to B1, in assay [1], the Normalized Fold Change: SA vs Mock was 17.7 fold.

B2: DMR1, HSK, homoserine kinase (protein, UniProt Q8L7R2 35-370, looked up)
Homoserine kinase: CRASVQTLVAVEPEPVFVSVKTFAPATVANLGPGFDFLGCAVDGLGDHVTLRVDPSVRAGEVSISEITGTTTKLSTNPLRNCAGIAAIATMKMLGIRSVGLSLDLHKGLPLGSGLGSSAASAAAAAVAVNEIFGRKLGSDQLVLAGLESEAKVSGYHADNIAPAIMGGFVLIRNYEPLDLKPLRFPSDKDLFFVLVSPDFEAPTKKMRAALPTEIPMVHHVWNSSQAAALVAAVLEGDAVMLGKALSSDKIVEPTRAPLIPGMEAVKKAALEAGAFGCTISGAGPTAVAVIDSEEKGQVIGEKMVEAFWKVGHLKSVASVKKLDNVGARLVNSVSR
For B2, the Normalized Fold Change: SA vs Mock in assay [1] was determined as 2.16 fold.

B3: LURP1, Protein of unknown function (DUF567) (protein, UniProt Q9ZQR8 1-207, looked up)
Protein LURP1: MQQPCVIVGSKYCSPNPVGLAIVRKVMKITDGNFVITSADGKLLFKVKDPLFSLHGKRILLDCSGAKVLTLRGKMMTMHDRWQVFRGGSTEEGALLYTVKRSSMIQLAPKLEVFLANNVEEKICDFKVKGAWLDDSCVVYAGDSDTIIAHMCGKQTMRGFFFGKDHFSVTVDKNVDYAFIASLIVILVEIEKAGFITKMTTQMIIGF
In turn, B3 returned a Normalized Fold Change: SA vs Mock in assay [1] of 4.63 fold.

B4: NPR2: Arabidopsis NPR1 paralog AtNPR2 (AT4G26120) (protein, UniProt Q9SZI3 1-600, looked up)
Regulatory protein NPR2: MATTTTTTTARFSDSYEFSNTSGNSFFAAESSLDYPTEFLTPPEVSALKLLSNCLESVFDSPETFYSDAKLVLAGGREVSFHRCILSARIPVFKSALATVKEQKSSTTVKLQLKEIARDYEVGFDSVVAVLAYVYSGRVRSPPKGASACVDDDCCHVACRSKVDFMVEVLYLSFVFQIQELVTLYERQFLEIVDKVVVEDILVIFKLDTLCGTTYKKLLDRCIEIIVKSDIELVSLEKSLPQHIFKQIIDIREALCLEPPKLERHVKNIYKALDSDDVELVKMLLLEGHTNLDEAYALHFAIAHCAVKTAYDLLELELADVNLRNPRGYTVLHVAAMRKEPKLIISLLMKGANILDTTLDGRTALVIVKRLTKADDYKTSTEDGTPSLKGGLCIEVLEHEQKLEYLSPIEASLSLPVTPEELRMRLLYYENRVALARLLFPVETETVQGIAKLEETCEFTASSLEPDHHIGEKRTSLDLNMAPFQIHEKHLSRLRALCKTVELGKRYFKRCSLDHFMDTEDLNHLASVEEDTPEKRLQKKQRYMELQETLMKTFSEDKEECGKSSTPKPTSAVRSNRKLSHRRLKVDKRDFLKRPYGNGD
For B4, the “SA-induced cytoplasmic body/condensate (SINC) formation” value in assay [2] (5 mM SA for 2 hr) was “fail to form cytoplasmic condensates”.

B5: TAT3, tyrosine aminotransferase 3 (protein, UniProt Q9SK47 1-445, looked up)
Probable aminotransferase TAT3: MASNGVTNCNANANVWRFKGNGATSDAAAVTLRKLAFGMFKNCTMNSGKTILFPTPGEPSAHSNFRTCPEAEEAVAAAARSGMANSYAPSPGVFKARRAVAEYLNGELPTKLKAEDVYITGGCNQAIEIVIDSLAGNPSANILLPRPGYPHYDARAVYSGLEIRKYDLLPESDWEINLDGLEAAADENTVAMVIINPNNPCGNVYTYDHLNKVAEMARKLGIMIISDEVYDHVVYGDKPFIPMGKFASIAPVITLGSISKGWVNPGWRVGWIAMNDPNGIFVSTGVVQAIEDFLDLTPQPSFILQEALPDILEKTPKEFFEKKIKAMRRNVELSCERLKDIPCLFCPKKPESCSYLWLKLDTSMLNNIKNDFDFCTKLVSEESLILIPGVALGAENWVRISIGTDESVVQEIFDRLKGFYDRHAISKEAIKLSGHAINQIVVSVN
In turn, B5 had a Normalized Fold Change: SA vs Mock in assay [1] of 18.5 fold.

B6: ATCHR12, Homeotic gene regulator (protein, UniProt F4J9M5 1-1102, looked up)
Probable ATP-dependent DNA helicase CHR12: MVAQQLQERCGGTSQEDPVETTKSLICALNYISRDLPLPPHLFTAVSSIYHGASSSSLSDSDVSPPLPTSPPANKAPYGADLMGEFEDALLKQRPDCESGSRLIQLLDNRNKSHIQRRLSELEELPSTRGEDLQAKCLLELYGLKLRELQGKVRTAVSSEFWLRLNCADVSSQVFDWGMMRLPRPFYGVGDPFAMEADDQFRKKRDAERLSRLEEEEKNLIETAKRKFFAEVLNAVREFQLQIQATQKRRRQRNDGVQAWHGRQRQRATRAEKLRLMALKSDDQEAYMKLVKESKNERLTTLLEETNKLLANLGAAVQRQKDAKLPEGIDLLKDSESDLSELDAPRSEPLQDLLPDQDIDITESDNNDDSNDLLEGQRQYNSAIHSIQEKVTEQPSLLEGGELRSYQLEGLQWMVSLFNNNLNGILADEMGLGKTIQTISLIAYLLENKGVPGPYLIVAPKAVLPNWVNEFATWVPSIAAFLYDGRLEERKAIREKIAGEGKFNVLITHYDLIMRDKAFLKKIEWYYMIVDEGHRLKNHESALAKTLLTGYRIKRRLLLTGTPIQNSLQELWSLLNFLLPHIFNSVQNFEEWFNAPFADRGNVSLTDEEELLIIHRLHHVIRPFILRRKKDEVEKFLPGKTQVILKCDMSAWQKVYYKQVTDMGRVGLQTGSGKSKSLQNLTMQLRKCCNHPYLFVGGDYNMWKKPEIVRASGKFELLDRLLPKLRKAGHRILLFSQMTRLIDVLEIYLTLNDYKYLRLDGTTKTDQRGLLLKQFNEPDSPYFMFLLSTRAGGLGLNLQTADTVIIFDSDWNPQMDQQAEDRAHRIGQKKEVRVFVLVSVGSVEEVILERAKQKMGIDAKVIQAGLFNTTSTAQDRREMLEEIMRKGTSSLGTDVPSEREINRLAARSEDEFWMFERMDEERRRKENYRARLMQEQEVPEWAYTTQTQEEKLNNGKFHFGSVTGKRKRKEIVYSDTLSELQWLKAVESGEDLSKLSMRYNRREENASNTKTSTSKKVIESIQTVSDGTSEEDEEEQEEERAKEMSGKQRVDKSEEEEEEGEEENDGKAIFKWNTHKKKRSRYSFTCSSSDSRAQSSNGSRRK
Molecule B6 yielded a Normalized Fold Change: SA vs Mock in assay [1] of 9.34 fold.

B7: NPR6: development-associated NPR1 paralog AtNPR6 (AT3G57130) (protein, UniProt Q9M1I7 1-467, looked up)
Regulatory protein NPR6: MSNTFEESLKSMSLDYLNLLINGQAFSDVTFSVEGRLVHAHRCILAARSLFFRKFFCESDPSQPGAEPANQTGSGARAAAVGGVIPVNSVGYEVFLLLLQFLYSGQVSIVPHKHEPRSNCGDRGCWHTHCTAAVDLSLDILAAARYFGVEQLALLTQKHLTSMVEKASIEDVMKVLIASRKQDMHQLWTTCSYLIAKSGLPQEILAKHLPIELVAKIEELRLKSSMPLRSLMPHHHDLTSTLDLEDQKIRRMRRALDSSDVELVKLMVMGEGLNLDESLALIYAVENCSREVVKALLELGAADVNYPAGPTGKTALHIAAEMVSPDMVAVLLDHHADPNVQTVDGITPLDILRTLTSDFLFKGAIPGLTHIEPNKLRLCLELVQSAALVISREEGNNNSNDNNTMIYPRMKDEHTSGSSLDSRLVYLNLGATNRDIGDDNSNQREGMNLHHHHHDPSTMYHHHHHHF
As for B7, the “condensate formation in the absence of SA (constitutive)” value in assay [2] (no SA treatment / mock) is on record as “constitutive bodies”.

B8: MEK1 (protein, UniProt Q94A06 1-354, looked up)
Mitogen-activated protein kinase kinase 1: MNRGSLCPNPICLPPLEQSISKFLTQSGTFKDGDLRVNKDGIQTVSLSEPGAPPPIEPLDNQLSLADLEVIKVIGKGSSGNVQLVKHKLTQQFFALKVIQLNTEESTCRAISQELRINLSSQCPYLVSCYQSFYHNGLVSIILEFMDGGSLADLLKKVGKVPENMLSAICKRVLRGLCYIHHERRIIHRDLKPSNLLINHRGEVKITDFGVSKILTSTSSLANSFVGTYPYMSPERISGSLYSNKSDIWSLGLVLLECATGKFPYTPPEHKKGWSSVYELVDAIVENPPPCAPSNLFSPEFCSFISQCVQKDPRDRKSAKELLEHKFVKMFEDSDTNLSAYFTDAGSLIPPLAN
In assay [1], B8 came in with a Normalized Fold Change: SA vs Mock of 4.03 fold.
